Common to all, as to test: BLI (biotin peptide on tip)
The target in one experiment is T1, ATG13 (Homo sapiens (Human), UniProt O75143).
T1 chain: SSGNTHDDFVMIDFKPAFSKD

For the next experiment, the target named is T2, FYCO1 (Homo sapiens (Human), UniProt Q9BQS8).
T2 chain: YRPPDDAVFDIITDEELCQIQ

In the next experiment the target is T3, P62 (Homo sapiens (Human), UniProt Q13501).
T3 chain: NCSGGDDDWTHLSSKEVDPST

B1: LC3C (protein)
chain: MPPPQKIPSVRPFKQRKSLAIRQEEVAGIRAKFPNKIPVVVERYPRETFLPPLDKTKFLVPQELTMTQFLSIIRSRMVLRATEAFYLLVNNKSLVSMSATMAEIYRDYKDEDGFVYMTYASQETFG
For the molecule B1, the results for the Kd in the experiment with ATG13, with FYCO1 and with P62 were 0.48 µM, 3 µM and 2.7 µM, respectively.

(Values after article PMC6499816 (2019).)
